Data set [1] has as its system EJ cells. Briefly: Surface β-glucuronidase enzyme activity of stable EJ cells. The format is cell-based, human. To be noted: triplicate determinations. As for the experimental part: (§1) For performing surface enzyme activity assay, transiently-transfected 3T3 fibroblasts in 96-well microplates were washed once with phosphate-buffered saline and immediately assayed for βG activity by adding about 200 μl of phosphate-buffered saline (pH 7.0) buffer containing 0.1% of BSA and 0.25 mM of a β-glucuronidase substrate, 4-methylumbelliferyl β-D-glucuronide, for 30 min at 37° C. About 150 μl of the resulting mixture was transferred to a 96-well fluorescence microplate and mixed with about 75 μl of a stop buffer containing about 1 M of glycine and about 0.5 M of sodium bicarbonate at pH 11. The fluorescence of each mixture was measured at an excitation wavelength of 365 nm and an emission wavelength of 455 nm.
The results shown are the mean values of triplicate determinations. EJ/mβG cells display about 2-3 fold more β-glucuronidase activity than EJ/eβG cells and about 5-fold higher activity than EJ/hβG cells. […] The enzymatic activity of E. coli β-glucuronidase in EJ cells are relatively higher than human β-glucuronidase, even though the expression levels of E. coli β-glucuronidase present on EJ/eβG cells are relatively lower than the expression levels of human β-glucuronidase.

A short description of data set [2]: Specific activity and pH profile of purified recombinant β-glucuronidases. The format is biochemical. To be noted: purified recombinant protein, n=3; for maximal specific activity: at optimal pH. The text has this: It is contemplated that the disparity between the relative surface expression levels the relative enzymatic activity of human β-glucuronidase, mouse β-glucuronidase, and E. coli β-glucuronidase in EJ cells is probably because of the neutral pH optimum of E. coli β-glucuronidase or a highly specific enzyme activity for the recombinant E. coli β-glucuronidase enzyme, which could cause the relatively effective hydrolysis of glucuronide substrates even though even though the expression levels of E. coli β-glucuronidase present on EJ/eβG cells are relatively lower than the expression levels of human β-glucuronidase. To differentiate these possibilities, recombinant forms of each enzyme are purified in order to measure accurately their specific activities at defined pH values.
The relative enzymatic activities (percentage maximum activity) of these recombinant enzymes at the indicated pH values are shown (n=3).
E. coli β-glucuronidase display a maximal specific activity of about 20,000 U/mg whereas human β-glucuronidase and mouse β-glucuronidase had maximal specific activities of abut 1600 U/mg and about 1100 U/mg, respectively.

Data set [3] relates to 3T3 fibroblasts. Briefly: Surface enzyme activity assay of transiently transfected 3T3 fibroblasts (4-methylumbelliferyl β-D-glucuronide). The format is cell-based, murine. The procedure:
as §1
3T3 fibroblasts were transfected with plasmid DNAs using lipofectamine. After about 48 hour, the transfected cells were washed with phosphate-buffered saline and immediately assayed for β-glucuronidase activity by adding 4-methylumbelliferyl β-D-glucuronide for about 30 min at 37° C. The fluorescence (MUG reading as shown) of the resulting mixture was measured. The β-glucuronidase activity in the culture medium of transfected cells was also measured in an analogous way.

B1: mβG-e-B7: murine β-glucuronidase fused to immunoglobulin-like C2-type extracellular region, transmembrane domain and cytoplasmic tail of murine B7-1 antigen (protein)
chain: LKGGMLFPKESPSRELKALDGLWHFRADLSNNRLQGFEQQWYRQPLRESGPVLDMPVPSSFNDITQEAALRDFIGWVWYEREAILPRRWTQDTDMRVVLRINSAHYYAVVWVNGIHVVEHEGGHLPFEADISKLVQSGPLTTCRITIAINNTLTPHTLPPGTIVYKTDTSMYPKGYFVQDTSFDFFNYAGLHRSVVLYTTPTTYIDDITVITNVEQDIGLVTYWISVQGSEHFQLEVQLLDEDGKVVAHGTGNQGQLQVPSANLWWPYLMHEHPAYMYSLEVKVTTTESVTDYYTLPVGIRTVAVTKSKFLINGKPFYFQGVNKHEDSDIRGKGFDWPLLVKDFNLLRWLGANSFRTSHYPYSEEVLQLCDRYGIVVIDECPGVGIVLPQSFGNESLRHHLEVMEELVRRDKNHPAVVMWSVANEPSSALKPAAYYFKTLITHTKALDLTRPVTFVSNAKYDADLGAPYVDVICVNSYFSWYHDYGHLEVIQPQLNSQFENWYKTHQKPIIQSEYGADAIPGIHEDPPRMFSEEYQKAVLENYHSVLDQKRKEYVVGELIWNFADFMTNQSPLRVIGNKKGIFTRQRQPKTSAFILRERYWRIANETGGHGSGPRTQCFGSRPFTFVDEQKLISEEDLADFSTPNITESGNPSADTKRITCFASGGFPKPRFSWLENGRELPGINTTISQDPESELYTISSQLDFNTTRNHTIKCLIKYGDAHVSEDFTWEKPPEDPPDSKNTLVLFGAGFGAVITVVVIVVIIKCFCKHRSCFRRNEASRETNNSLTFGPEEALAEQTVFL
With B1, the “surface β-glucuronidase activity of EJ/mβG cells relative to EJ/hβG cells” value in data set [1] (higher activity) is “about 5 fold”. Further, the “surface β-glucuronidase activity of EJ/mβG cells relative to EJ/eβG cells” value in data set [1] (more activity) is 2-3 fold.

B2: human β-glucuronidase: purified recombinant human β-glucuronidase protein (protein, listed as Homo sapiens)
chain: LQGGMLYPQESPSRECKELDGLWSFRADFSDNRRRGFEEQWYRRPLWESGPTVDMPVPSSFNDISQDWRLRHFVGWVWYEREVILPERWTQDLRTRVVLRIGSAHSYAIVWVNGVDTLEHEGGYLPFEADISNLVQVGPLPSRLRITIAINNTLTPTTLPPGTIQYLTDTSKYPKGYFVQNTYFDFFNYAGLQRSVLLYTTPTTYIDDITVTTSVEQDSGLVNYQISVKGSNLFKLEVRLLDAENKVVANGTGTQGQLKVPGVSLWWPYLMHERPAYLYSLEVQLTAQTSLGPVSDFYTLPVGIRTVAVTKSQFLINGKPFYFHGVNKHEDADIRGKGFDWPLLVKDFNLLRWLGANAFRTSHYPYAEEVMQMCDRYGIVVIDECPGVGLALPQFFNNVSLHHHMQVMEEVVRRDKNHPAVVMWSVANEPASHLESAGYYLKMVIAHTKSLDPSRPVTFVSNSNYAADKGAPYVDVICLNSYYSWYHDYGHLELIQLQLATQFENWYKKYQKPIIQSEYGAETIAGFHQDPPLMFTEEYQKSLLEQYHLGLDQKRRKYVVGELIWNFADFMTEQSPTRVLGNKKGIFTRQRQPKSAAFLLRERYWKIANETRYPHSVAKSQCLENSPFT
As for B2, the maximal specific activity in data set [2] is roughly 1600 U/mg.

B3: E. coli β-glucuronidase: purified recombinant E. coli β-glucuronidase protein (protein, UniProt P05804 1-603, looked up)
Beta-glucuronidase: MLRPVETPTREIKKLDGLWAFSLDRENCGIDQRWWESALQESRAIAVPGSFNDQFADADIRNYAGNVWYQREVFIPKGWAGQRIVLRFDAVTHYGKVWVNNQEVMEHQGGYTPFEADVTPYVIAGKSVRITVCVNNELNWQTIPPGMVITDENGKKKQSYFHDFFNYAGIHRSVMLYTTPNTWVDDITVVTHVAQDCNHASVDWQVVANGDVSVELRDADQQVVATGQGTSGTLQVVNPHLWQPGEGYLYELCVTAKSQTECDIYPLRVGIRSVAVKGEQFLINHKPFYFTGFGRHEDADLRGKGFDNVLMVHDHALMDWIGANSYRTSHYPYAEEMLDWADEHGIVVIDETAAVGFNLSLGIGFEAGNKPKELYSEEAVNGETQQAHLQAIKELIARDKNHPSVVMWSIANEPDTRPQGAREYFAPLAEATRKLDPTRPITCVNVMFCDAHTDTISDLFDVLCLNRYYGWYVQSGDLETAEKVLEKELLAWQEKLHQPIIITEYGVDTLAGLHSMYTDMWSEEYQCAWLDMYHRVFDRVSAVVGEQVWNFADFATSQGILRVGGNKKGIFTRDRKPKSAAFLLQKRWTGMNFGEKPQQGGKQ
As to B3, in data set [2], the maximal specific activity result is given as “about 20,000 U/mg” and the “pH of maximal/optimal enzymatic activity” value is listed as “neutral pH range”.

B4: mouse β-glucuronidase: purified recombinant mouse β-glucuronidase protein (protein, listed as Mus musculus)
chain: LKGGMLFPKESPSRELKALDGLWHFRADLSNNRLQGFEQQWYRQPLRESGPVLDMPVPSSFNDITQEAALRDFIGWVWYEREAILPRRWTQDTDMRVVLRINSAHYYAVVWVNGIHVVEHEGGHLPFEADISKLVQSGPLTTCRITIAINNTLTPHTLPPGTIVYKTDTSMYPKGYFVQDTSFDFFNYAGLHRSVVLYTTPTTYIDDITVITNVEQDIGLVTYWISVQGSEHFQLEVQLLDEDGKVVAHGTGNQGQLQVPSANLWWPYLMHEHPAYMYSLEVKVTTTESVTDYYTLPVGIRTVAVTKSKFLINGKPFYFQGVNKHEDSDIRGKGFDWPLLVKDFNLLRWLGANSFRTSHYPYSEEVLQLCDRYGIVVIDECPGVGIVLPQSFGNESLRHHLEVMEELVRRDKNHPAVVMWSVANEPSSALKPAAYYFKTLITHTKALDLTRPVTFVSNAKYDADLGAPYVDVICVNSYFSWYHDYGHLEVIQPQLNSQFENWYKTHQKPIIQSEYGADAIPGIHEDPPRMFSEEYQKAVLENYHSVLDQKRKEYVVGELIWNFADFMTNQSPLRVIGNKKGIFTRQRQPKTSAFILRERYWRIANETGGHGSGPRTQCFGSRPFTF
Consider B4, for which the maximal specific activity entry in data set [2] is “about 1100 U/mg”.

B5: hβG-e-B7: human β-glucuronidase fused to Ig-like C2-type and Ig-hinge-like domains, TM and cytoplasmic tail of murine B7-1 (protein)
chain: LQGGMLYPQESPSRECKELDGLWSFRADFSDNRRRGFEEQWYRRPLWESGPTVDMPVPSSFNDISQDWRLRHFVGWVWYEREVILPERWTQDLRTRVVLRIGSAHSYAIVWVNGVDTLEHEGGYLPFEADISNLVQVGPLPSRLRITIAINNTLTPTTLPPGTIQYLTDTSKYPKGYFVQNTYFDFFNYAGLQRSVLLYTTPTTYIDDITVTTSVEQDSGLVNYQISVKGSNLFKLEVRLLDAENKVVANGTGTQGQLKVPGVSLWWPYLMHERPAYLYSLEVQLTAQTSLGPVSDFYTLPVGIRTVAVTKSQFLINGKPFYFHGVNKHEDADIRGKGFDWPLLVKDFNLLRWLGANAFRTSHYPYAEEVMQMCDRYGIVVIDECPGVGLALPQFFNNVSLHHHMQVMEEVVRRDKNHPAVVMWSVANEPASHLESAGYYLKMVIAHTKSLDPSRPVTFVSNSNYAADKGAPYVDVICLNSYYSWYHDYGHLELIQLQLATQFENWYKKYQKPIIQSEYGAETIAGFHQDPPLMFTEEYQKSLLEQYHLGLDQKRRKYVVGELIWNFADFMTEQSPTRVLGNKKGIFTRQRQPKSAAFLLRERYWKIANETRYPHSVAKSQCLENSPFTVDEQKLISEEDLADFSTPNITESGNPSADTKRITCFASGGFPKPRFSWLENGRELPGINTTISQDPESELYTISSQLDFNTTRNHTIKCLIKYGDAHVSEDFTWEKPPEDPPDSKNTLVLFGAGFGAVITVVVIVVIIKCFCKHRSCFRRNEASRETNNSLTFGPEEALAEQTVFL
As for B5, the “β-glucuronidase enzyme activity on the cell surface” value in data set [3] is listed as “greatest levels”.
